Key:
[1] = target: T1, Recombinant EGFRVIII-His*6 antigen (Homo sapiens, UniProt P00533, DELINS30-297G); assay: ELISA relative affinity for EGFRvIII; type: binding; conditions: for EC50: EGFRvIII-coated plates, A450, read-out: EC50 (nM), mutant antibody affinity
T1 construct: His*6
Excerpt: Insertion Mutation Modification and Parent Antibody 2A1 for EGFRvIII • ELISA was used to compare the relative affinities of 2A1-LC-Cys110ins-mc-vc-PAB-MMAE TDC, 2A1-LC-Cys111ins-mc-vc-PAB-MMAE TDC, 2A1-LC-Cys142ins-mc-vc-PAB-MMAE TDC, 2A1-HC-Cys254ins-mc-vc-PAB-MMAE TDC, 2A1-HC-Cys255ins-mc-vc-PAB-MMAE TDC, 2A1-HC-Cys258ins-mc-vc-PAB-MMAE TDC, 2A1-HC-Cys259ins-mc-vc-PAB-MMAE TDC, 2A1-HC-Cys354ins-mc-vc-PAB-MMAE TDC, 2A1-HC-Cys355ins-mc-vc-PAB-MMAE TDC, 2A1-HC-Cys357ins-mc-vc-PAB-MMAE TDC, 2A1-HC-Cys378ins-mc-vc-PAB-MMAE TDC, 2A1-HC-Cys379ins-mc-vc-PAB-MMAE TDC, 2A1-HC-Cys386ins-mc-vc-PAB-MMAE TDC, 2A1-HC-Cys387ins-mc-vc-PAB-MMAE TDC, 2A1-HC-Cys410ins-mc-vc-PAB-MMAE TDC, and 2A1 for EGFRvIII. The specific process used was as follows:
Recombinant […]-His*6 antigen was used to coat plates; fish skin gelatin was used as a seal; dilution of each insertion mutant antibody was performed separately, up to a maximum concentration 10 μg/ml and a 4-fold gradient dilution was performed for a total of 11 concentrations; HRP-labeled secondary antibodies were used for incubation; TMB was used for development and absorption detection was performed at 450 nm.

[2] = system: EFGRvIII-overexpressing human glioma cell line U87-EGFRvIII; assay: MTS cytotoxicity (cell viability) assay, U87-EGFRvIII; type: cell-based; conditions: antibodies; 72 hours; read-out: IC50, U87MG-EGFRvIII (MTS)
Protocol: (§1) TDC cytotoxic activity was determined via the following experimental procedure: TDC was added to EGFR-overexpressing or […]-expressing human tumor cell culture medium, and cell viability was determined after 72 hours of cell culture. Cell-based in vitro experiments were used to determine cell viability, cytotoxicity and programmed cell death induced by TDC constituted by the present invention.
(§2) In vitro efficacy of antibody-toxin conjugates was determined via a cell proliferation assay. A CellTiter ^96® AqueousOne Solution Cell was Proliferation Assay purchased commercially from Promega Corp. (Madison, WI). CellTiter ^96® Aqueous One Solution Cell Proliferation Assay (a) is a colorimetric method used to detect the number of living cells in cell proliferation and cytotoxicity experiments. The above reagent contains the novel tetrazole compound [3-(4,5-dimethylthiazol-2-yl)-5-(3-carboxymethoxyphenyl)-2-(4-sulfophenyl)-2H-tetrazolium, inner salt; MTS) as well as an electronic coupling agent (phenazine ethosulfate; PES). […] This convenient “single solution” model is an improvement on the first generation of the CellTiter ^96® Aqueous Assay, in which the electronic coupling agent PMS was supplied separately from the MTS solution. MTS (Owen's reagent) is reduced by cellular organisms into a colored formazan product, which can be directly dissolved in culture medium (FIG. 1). This conversion is likely facilitated by NADPH NADH produced by dehydrogenase present in metabolically active cells. For the assay, a small amount of CellTiter ^96® Aqueous One Solution Reagent is added directly to the medium present in the wells of the culture plate, after which incubation is performed for 1 to 4 hours, followed by reading of the absorbance value at 490 nm using a microplate reader.
(§3) The amount of formazan product detected at 490 nm is proportional to the number of viable cells in culture. Because the formazan product of MTS is soluble in tissue culture medium, CellTiter ^96® Aqueous One Solution Assay requires fewer steps than the MTT or INT methods. A431 (EGFR-overexpressing cells) and U87-[…] (an […] mutant stable cell line) were used in the present invention as an investigative system for performing in vitro efficacy assays. In 96-well plates, cells were plated at 6000 cells/well and 24 hours later, antibody spiking was carried out. […] Cell viability was assayed via MTS 72 hours after treatment.

[3] = system: EGFRwt-overexpressing human skin squamous cell carcinoma cell line A431; assay: MTS cytotoxicity (cell viability) assay, A431; type: cell-based; conditions: antibodies; 72 hours
Protocol: as §1, §2, §3

Molecule	Affinity for EGFRvIII relative to 2A1 (in words) [1]	EC50 [1]	IC50 [2]	IC50 [3]
2A1-HC-Cys379ins: 2A1 antibody with cysteine inserted at heavy chain position 379 (SEQ ID NO: 38) (antibody) heavy: DVQLQESGPSLVKPSQSLSLTCTVTGYSITSDFAWNWIRQFPGNKLEWMGYISYSGNTRYNPSLKSRISITRDTSKNQFFLQLNSVTIEDTATYYCVTAGRGFPYWGQGTLVTVSAASTKGPSVFPLAPSSKSTSGGTAALGCLVKDYFPEPVTVSWNSGALTSGVHTFPAVLQSSGLYSLSSVVTVPSSSLGTQTYICNVNHKPSNTKVDKRVEPKSCDKTHTCPPCPAPEFLGGPSVFLFPPKPKDTLMISRTPEVTCVVVDVSHEDPEVKFNWYVDGVEVHNAKTKPREEQYNSTYRVVSVLTVLHQDWLNGKEYKCKVSNKALPAPIEKTISKAKGQPREPQVYTLPPSRDELTKNQVSLTCLVKGFYPSDIAVEWECSNGQPENNYKTTPPVLDSDGSFFLYSKLTVDKSRWQQGNVFSCSVMHEALHNHYTQKSLSLSPG light: DILMTQSPSSMSVSLGDTVSITCHSSQDINSNIGWLQQRPGKSFKGLIYHGTNLDDEVPSRFSGSGSGADYSLTISSLESEDFADYYCVQYAQFPWTFGGGTKLEIKRTVAAPSVFIFPPSDEQLKSGTASVVCLLNNFYPREAKVQWKVDNALQSGNSQESVTEQDSKDSTYSLSSTLTLSKADYEKHKVYACEVTHQGLSSPVTKSFNRGEC	maintained 2A1 affinity	0.0409 nM	> 10 µM	> 10 µM
2A1-HC-Cys386ins: 2A1 antibody with cysteine inserted at heavy chain position 386 (SEQ ID NO: 40) (antibody) heavy: DVQLQESGPSLVKPSQSLSLTCTVTGYSITSDFAWNWIRQFPGNKLEWMGYISYSGNTRYNPSLKSRISITRDTSKNQFFLQLNSVTIEDTATYYCVTAGRGFPYWGQGTLVTVSAASTKGPSVFPLAPSSKSTSGGTAALGCLVKDYFPEPVTVSWNSGALTSGVHTFPAVLQSSGLYSLSSVVTVPSSSLGTQTYICNVNHKPSNTKVDKRVEPKSCDKTHTCPPCPAPEFLGGPSVFLFPPKPKDTLMISRTPEVTCVVVDVSHEDPEVKFNWYVDGVEVHNAKTKPREEQYNSTYRVVSVLTVLHQDWLNGKEYKCKVSNKALPAPIEKTISKAKGQPREPQVYTLPPSRDELTKNQVSLTCLVKGFYPSDIAVEWESNGQPENCNYKTTPPVLDSDGSFFLYSKLTVDKSRWQQGNVFSCSVMHEALHNHYTQKSLSLSPG light: DILMTQSPSSMSVSLGDTVSITCHSSQDINSNIGWLQQRPGKSFKGLIYHGTNLDDEVPSRFSGSGSGADYSLTISSLESEDFADYYCVQYAQFPWTFGGGTKLEIKRTVAAPSVFIFPPSDEQLKSGTASVVCLLNNFYPREAKVQWKVDNALQSGNSQESVTEQDSKDSTYSLSSTLTLSKADYEKHKVYACEVTHQGLSSPVTKSFNRGEC	maintained 2A1 affinity	0.0435 nM	> 10 µM	> 10 µM
2A1-HC-Cys255ins: 2A1 antibody with cysteine inserted at heavy chain position 255 (SEQ ID NO: 24) (antibody) heavy: DVQLQESGPSLVKPSQSLSLTCTVTGYSITSDFAWNWIRQFPGNKLEWMGYISYSGNTRYNPSLKSRISITRDTSKNQFFLQLNSVTIEDTATYYCVTAGRGFPYWGQGTLVTVSAASTKGPSVFPLAPSSKSTSGGTAALGCLVKDYFPEPVTVSWNSGALTSGVHTFPAVLQSSGLYSLSSVVTVPSSSLGTQTYICNVNHKPSNTKVDKRVEPKSCDKTHTCPPCPAPEFLGGPSVFLFPPKPKDTLMISRTPECVTCVVVDVSHEDPEVKFNWYVDGVEVHNAKTKPREEQYNSTYRVVSVLTVLHQDWLNGKEYKCKVSNKALPAPIEKTISKAKGQPREPQVYTLPPSRDELTKNQVSLTCLVKGFYPSDIAVEWESNGQPENNYKTTPPVLDSDGSFFLYSKLTVDKSRWQQGNVFSCSVMHEALHNHYTQKSLSLSPG light: DILMTQSPSSMSVSLGDTVSITCHSSQDINSNIGWLQQRPGKSFKGLIYHGTNLDDEVPSRFSGSGSGADYSLTISSLESEDFADYYCVQYAQFPWTFGGGTKLEIKRTVAAPSVFIFPPSDEQLKSGTASVVCLLNNFYPREAKVQWKVDNALQSGNSQESVTEQDSKDSTYSLSSTLTLSKADYEKHKVYACEVTHQGLSSPVTKSFNRGEC	maintained 2A1 affinity	0.039 nM	> 10 µM	> 10 µM
2A1-HC-Cys258ins: 2A1 antibody with cysteine inserted at heavy chain position 258 (SEQ ID NO: 26) (antibody) heavy: DVQLQESGPSLVKPSQSLSLTCTVTGYSITSDFAWNWIRQFPGNKLEWMGYISYSGNTRYNPSLKSRISITRDTSKNQFFLQLNSVTIEDTATYYCVTAGRGFPYWGQGTLVTVSAASTKGPSVFPLAPSSKSTSGGTAALGCLVKDYFPEPVTVSWNSGALTSGVHTFPAVLQSSGLYSLSSVVTVPSSSLGTQTYICNVNHKPSNTKVDKRVEPKSCDKTHTCPPCPAPEFLGGPSVFLFPPKPKDTLMISRTPEVTCCVVVDVSHEDPEVKFNWYVDGVEVHNAKTKPREEQYNSTYRVVSVLTVLHQDWLNGKEYKCKVSNKALPAPIEKTISKAKGQPREPQVYTLPPSRDELTKNQVSLTCLVKGFYPSDIAVEWESNGQPENNYKTTPPVLDSDGSFFLYSKLTVDKSRWQQGNVFSCSVMHEALHNHYTQKSLSLSPG light: DILMTQSPSSMSVSLGDTVSITCHSSQDINSNIGWLQQRPGKSFKGLIYHGTNLDDEVPSRFSGSGSGADYSLTISSLESEDFADYYCVQYAQFPWTFGGGTKLEIKRTVAAPSVFIFPPSDEQLKSGTASVVCLLNNFYPREAKVQWKVDNALQSGNSQESVTEQDSKDSTYSLSSTLTLSKADYEKHKVYACEVTHQGLSSPVTKSFNRGEC	maintained 2A1 affinity	0.0423 nM	> 10 µM	> 10 µM
2A1-HC-Cys254ins: 2A1 antibody with cysteine inserted at heavy chain position 254 (SEQ ID NO: 22) (antibody) heavy: DVQLQESGPSLVKPSQSLSLTCTVTGYSITSDFAWNWIRQFPGNKLEWMGYISYSGNTRYNPSLKSRISITRDTSKNQFFLQLNSVTIEDTATYYCVTAGRGFPYWGQGTLVTVSAASTKGPSVFPLAPSSKSTSGGTAALGCLVKDYFPEPVTVSWNSGALTSGVHTFPAVLQSSGLYSLSSVVTVPSSSLGTQTYICNVNHKPSNTKVDKRVEPKSCDKTHTCPPCPAPEFLGGPSVFLFPPKPKDTLMISRTPCEVTCVVVDVSHEDPEVKFNWYVDGVEVHNAKTKPREEQYNSTYRVVSVLTVLHQDWLNGKEYKCKVSNKALPAPIEKTISKAKGQPREPQVYTLPPSRDELTKNQVSLTCLVKGFYPSDIAVEWESNGQPENNYKTTPPVLDSDGSFFLYSKLTVDKSRWQQGNVFSCSVMHEALHNHYTQKSLSLSPG light: DILMTQSPSSMSVSLGDTVSITCHSSQDINSNIGWLQQRPGKSFKGLIYHGTNLDDEVPSRFSGSGSGADYSLTISSLESEDFADYYCVQYAQFPWTFGGGTKLEIKRTVAAPSVFIFPPSDEQLKSGTASVVCLLNNFYPREAKVQWKVDNALQSGNSQESVTEQDSKDSTYSLSSTLTLSKADYEKHKVYACEVTHQGLSSPVTKSFNRGEC	maintained 2A1 affinity	0.0456 nM	> 10 µM	> 10 µM

From US12678474B2, “Screening of fixed-point coupling sites of cysteine-modified antibody-toxin conjugate (TDC)” (SICHUAN BAILI PHARMACEUTICAL CO. LTD., priority 2017, dated 2026)
